Experiment: soluble on expression in E. coli; label from the status in PepcDB or PDB records

| Sequence | soluble on expression in E. coli |
| --- | --- |
| GPGSMKKTVEDRSLEFLIRRRNDAELPPLASLSCKHLKQHHWRDAFDDEQAALREQLWAVKTQLDVIPAETYTATRNKLFPLAASGEQRNFSNRAGHKLLESMESTGVWMELSKLLRGKSTKRPRDFAFADVCGGPGAFSQALFQAGRKRGWRHLHGYGMTLAGVSGLDWYAHLLKSPQFTCTYGLDGTGDIFKLSNIDCLASITKAAPMFLVVADGGFNVDFSVTNYQETISSRIMYGQWLAALKLLRKGGCFVLKLFDTFSPLSRAVLYLSCCMYRRVHVAKPRHSRVVNSERYLVCVDFLGYPSEGWSRYLDSFYEVGFVDNEHVPQLIPREWCLQDAVFMADVRDMNTAVATNQVIALQMILDAAPAMTEELKAKTIEKKPAAGSDDGRTPPPDEGGDGE | not soluble |
| MVSEIVVDVGINEKRVALLEDRELVELFIERNDCERLVGNIYRGRVESVLPGMQAAFIDIGYEKNAFLYVGDAIPQKEFSEDDEEIYSDVKSYNIEEILRPGQEITVQVTKEPIGTKGPRVTTHITLPGRQMVLLPNADYIGISRRIEDEEERAKLRKIAEKIKPKNMGIIVRTVSEGKREEDFKSDLNFLVKLWAKIKQREQSGPVPRCLHKDLSVIYRAVRDIFTWNIDRFVINDRQEYNKVLELVEMISPALKMRVEYFNKNIDLFEYYQIDSMIQKALAKKVWLKCGGYIVIERTEALTVIDVNTGKYVGVNNLEDTVLRTNLDAVKEIGKQLRLRDIGGIIIIDFIDMHDPEHQKQVLEALKQVLKKDRTKTTVVGMTGLGLIEMTRKKVREGLESMMLQDCPYCEGRGKILSPESVARNVEKEISKYFTKTIANAIMVEVHPTVAEVLRGEDNDNLARIQNLFNKKVIIKPSAEVGHEEVKGSCKIKCRNI | not soluble |
| MSQLQEMMTVVSQREVAYNIFEMVLKGTLVDEMDLPGQFLHLAVPNGAMLLRRPISISSWDKRAKTCTILYRIGDETTGTYKLSKLESGAKVDVMGPLGNGFPVAEVTSTDKILIIGGGIGVPPLYELAKQLEKTGCQMTILLGFASENVKILENEFSNLKNVTLKIATDDGSYGTKGHVGMLMNEIDFEVDALYTCGAPAMLKAVAKKYDQLERLYISMESRMACGIGACYACVEHDKEDESHALKVCEDGPVFLGKQLSL | soluble |
| MKIGIIGVGKMASAIIKGLKQTPHELIISGSSLERSKEIAEQLALPYAMSHQDLIDQVDLVILGIKPQLFETVLKPLHFKQPIISMAAGISLQRLATFVGQDLPLLRIMPNMNAQILQSSTALTGNALVSQELQARVRDLTDSFGSTFDISEKDFDTFTALAGSSPAYIYLFIEALAKAGVKNGIPKAKALEIVTQTVLASASNLKTSSQSPHDFIDAICSPGGTTIAGLMELERLGLTATVSSAIDKTIDKAKSL | soluble |
| MGSDKIHHHHHHMRMPEMMFLQGNEACALGAIKAGCRFFAGYPITPSTEIAEVMARELPKVGGVFVQMEDEIASAAAVVGASLAGVKSMTATSGPGFSLIQEVIGYAIMTETPCVFANVMRLGPSTGLPTKPAQGDIMQTRWGTHGDHAIIALYPSSVAEVYRYIITAFNLAEEYRTPVVFLMDAMLGHMRESFYPPKDEELFIIERLKDTSFGEEDLFVPFSESEYAEPTPFPMAEMGKTKFHVSGLVHDESGFPLSSPDAAEKLIRRLTNKIRLHADEIAFYEEYETEDAEILVVAYGIVARSAMKAVKIARRDRIKVGLFKPITIWPAPVSRFRKLAEKVNTIVIAEMNLGQYAKELISSIDRRSKVIRTINKVNGELIKPEEILDVITETQIEI | not soluble |
| MAKERALTLEALRVMDAIDRRGSFAAAADELGRVPSALSYTMQKLEEELDVVLFDRSGHRTKFTNVGRMLLERGRVLLEAADKLTTDAEALARGWETHLTIVTEALVPTPAFFPLIDKLAAKANTQLAIITEVLAGAWERLEQGRADIVIAPDMHFRSSSEINSRKLYTLMNVYVAAPDHPIHQEPEPLSEVTRVKYRGIAVADTARERPVLTVQLLDKQPRLTVSTIEDKRQALLAGLGVATMPYPMVEKDIAEGRLRVVSPESTSEIDIIMAWRRDSMGEAKSWCLREIPKLFNGK | soluble |
| MGSDKIHHHHHHMANISTFEVGYCLHPGCMALRGAGWKVCRFPARVWMLESHGKRWLWDTGYAQHFTDATRSGLFQLYRRMTPVHFETKDALIHQLHAQGIQPADIDGLIISHFHGDHIAGLQDFPTVPFICSALGWQQTRNLRGFAALKRAFVPALIPEHFEQSLQFVENFPLTDLPAALAPFTQGYVLPGSDKEIVLVPLPGHAVGHLGAFVLTETGWVLLASDAAWSPHSYREGRGPSRLANLVMDDPKAYYQTLDQLHQLHLNGQVEIRLCHEGDL | not soluble |
| MIMHIPKSTYYHKWFIGATLVVPVLPLAAQTSPNLVFIMADQYRGDALGCLGKEPVKTPCLDHLASEGVLFTNAVSSYPVSSPARAMLMTGMYPLHNKVTGNCNSQTAPYGVELPQEARCWSDVLKDMNYRTGYIGKWHLDSPYKPYVDTYNNRGKVAWNEWCPPERRHGFEYWTAYGTYDYHLKPMYWDTTAPRDSFYYVNQWGPAYEADKAIEYIQTQKENKQPFALVVSMNPPHTGYELVPDKYKALYKDIDVEALCAHRPDIPAKGTEMGNYFRNNIRNYYACITGVDEQVGRIIETLKSNGLFENTIIVFTSDHGICMGAHNNAGKDIFYEEAMRIPMIISWPAKIKPRKDDHLMIAFADLYPSLLSLMGFRKEIPETVQTFDLSRHILGKSKKEVVQPYYYVQFDNHATGYRGLRTSTHTFAVHATNGKIDETVLFDRTKDPYQMDNIAGQSPRLVRQFNKQLKAWLLHTNDSFAHYLETVTK | not soluble |
| MAHHHHHHSLSDLKIARIDVFQVDLPYSGGVYYLSAGREYRSFDATIVRITTDTGIEGWGESTPFGSNYIASHPRGVRAGIATMAPSLIGLDPRRVDRINDAMDDALLGHEDAKTAIDVACWDIFGKSVGLPVCELLGGRTNTRLPLISSIYVGEPEDMRARVAKYRAKGYKGQSVKISGEPVTDAKRITAALANQQPDEFFIVDANGKLSVETALRLLRLLPHGLDFALEAPCATWRECISLRRKTDIPIIYDELATNEMSIVKILADDAAEGIDLKISKAGGLTRGRRQRDICLAAGYSVSVQETCGSDIAFAAIVHLAQTIPERSLRCILECRDMVTVKTADGAFDIQDGFATAPTTPGLGIMPRLDVLGEAVASYF | soluble |
| MTALGLIETKGLLAAVEAADAMLKAADVRLLEKNLASGGLVTITVAGEVSAVRAAVDAGVSAIRRVNAASLVSEHVIARPDEGVSRVVSLVPPAAVPPAAPPVQAPAGDSGAQQPVQEAAEAEPQTGSTVEEQTPAAVEASPAPAAAAPRTETVRYEISQLKKMNVSRLRQVARGVSGLSIPREAVKSANKKDLIDAIINSYRQIEE | not soluble |
| CRYVARNGFQGVIVQCETSDGDDIPAEDDREGPPLSRGVFYNDGYDERQGKLILGIFPTGQCPSPIGNGSGTATDVTGEPEKTFSGRGFGRTSPTGMMSSLGAQREMTGLYDLPTTNGNDGEKPADPNGEGRGFTNKNAGTSCTEANAHT | soluble |
| MIAATPQAMDKQPSAKNQPCGIDKEVGTIANTVITLMPKYIDTNVIVLRHSCANRPPWRNAATNHANNPRNPSKNSTDITTPIDAAISGTACPFIRFSNSAIN | not soluble |
| MGSDKIHHHHHHMLIEEIMKRNVVTIHEQTTIKEAYQTMILEKFRHLPVITKSKDVIGIVTDQDIRDASPSIFHQDEHQEDLQKPVSSIMTKDVITVHPLNSVAETARLLYENRISCLPVTEGEQLVGIVTDTDVLHTLVELMGAHQPSSQIYVRVENKAGQLADVAAIMKQRQMNIASVLVYPHREDERYKILAFRIQSMDPRGTISDLQSKGYHVLWPNIPGIAT | not soluble |
| MSLYLIVGAYPSTPQVMKNIKMTSDALKKKESLICLNVLSKYNPEKHSNTSKRLPVKFFSGVLIVLMNTDNWASLEKRFSSEIANWRSGGNVICIAIGELGKFKGNDTYYLKTLQIALMNVDDNWIPADSSYELTMLNYLHKHERSFIKPLRYDASNNDVFPDFCLTDIGSTELFPIEVFGMDTASYLARKVIKESYYNERYGKDGWASWEAPAGPLPICPIRPAVNYQMLLEGHHHHHH | not soluble |
| MGSDKIHHHHHHQPGATGGTWTCCPVSWRAFQSNCYFPLNDNQTWHESERNCSGMSSHLVTINTEAEQNFVTQLLDKRFSYFLGLADENVEGQWQWVDKTPFNPHTVFWEKGESNDFMEEDCVVLVHVHEKWVWNDFPCHFEVRRICKLPGITFNWKPSK | not soluble |

Source: the DeepSol protein solubility set
